Biological target: T1, ZccR (MerR-type regulator) (Streptococcus mutans UA159) (UniProt Q8DRZ5)
T1 sequence: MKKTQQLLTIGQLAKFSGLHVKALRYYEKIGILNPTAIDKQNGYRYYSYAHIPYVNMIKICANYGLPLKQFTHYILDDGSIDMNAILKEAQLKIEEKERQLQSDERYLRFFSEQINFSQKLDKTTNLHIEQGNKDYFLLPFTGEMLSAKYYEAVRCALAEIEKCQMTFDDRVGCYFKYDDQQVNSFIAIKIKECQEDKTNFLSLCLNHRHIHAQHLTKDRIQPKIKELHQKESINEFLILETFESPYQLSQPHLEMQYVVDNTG
Assay: EMSA
Settings: 10 mM Tris, 50 mM KCl, 1 ug poly dI-dC, 1 mM DTT, 5% glycerol, pH 7.5; 20 fmol probe in 20 ul; 6% native PAGE at 4 C; binding temperature not stated

Sequence: CACAAATAGCTTGACCTTCCCTTTAAGGTATAGTTTATAGTTAAACTATAACAAGGTTTGCTAAAAAATGCAATGATTTCTGTATTGGAAAGGAGCCAATCATGTCTAAAGGTGATAAACAAAAGAAAAGGCTTCAAAAAATGACTTGGCTTTCAATATG (double strand) [zccE-zccR intergenic region (IGR), 160 bp]
- binding: binds
